From paper PMC10786891, “Massively parallel profiling of RNA-targeting CRISPR-Cas13d”
Changes are numbered by the printed parent chain. In names and notes the source's numbering stands.

T1: EsCas13d, nuclease-dead (Eubacterium siraeum, UniProt B0MS50, R295A;H300A;R849A;H854A)
T1 sequence: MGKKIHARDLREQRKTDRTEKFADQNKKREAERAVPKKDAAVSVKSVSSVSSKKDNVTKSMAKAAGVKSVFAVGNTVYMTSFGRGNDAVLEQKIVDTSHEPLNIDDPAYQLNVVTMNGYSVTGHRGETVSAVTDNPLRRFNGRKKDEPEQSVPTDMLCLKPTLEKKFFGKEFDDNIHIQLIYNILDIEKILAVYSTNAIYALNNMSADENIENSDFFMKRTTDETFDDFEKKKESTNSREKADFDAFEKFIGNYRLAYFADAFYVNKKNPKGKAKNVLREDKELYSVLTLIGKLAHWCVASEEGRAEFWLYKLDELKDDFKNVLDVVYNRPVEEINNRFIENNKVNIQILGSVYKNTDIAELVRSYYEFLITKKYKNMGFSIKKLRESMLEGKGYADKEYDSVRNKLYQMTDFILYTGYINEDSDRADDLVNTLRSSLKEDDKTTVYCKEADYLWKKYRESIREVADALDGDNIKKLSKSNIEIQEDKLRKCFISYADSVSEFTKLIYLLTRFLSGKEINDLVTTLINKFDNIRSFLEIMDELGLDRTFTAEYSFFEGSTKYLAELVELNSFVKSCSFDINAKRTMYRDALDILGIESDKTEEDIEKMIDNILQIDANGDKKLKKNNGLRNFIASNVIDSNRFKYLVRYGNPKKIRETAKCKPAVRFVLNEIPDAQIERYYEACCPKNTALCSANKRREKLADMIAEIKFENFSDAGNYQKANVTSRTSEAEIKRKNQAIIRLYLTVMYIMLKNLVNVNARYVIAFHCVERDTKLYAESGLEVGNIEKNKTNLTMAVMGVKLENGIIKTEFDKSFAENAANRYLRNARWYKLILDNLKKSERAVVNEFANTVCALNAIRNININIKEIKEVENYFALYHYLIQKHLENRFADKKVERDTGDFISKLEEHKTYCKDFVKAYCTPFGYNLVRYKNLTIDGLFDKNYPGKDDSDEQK

B1: target 1 G5C,C21U (mixed)
RNA 1: CACCCGUGCAAAAAUGCAGGGGUCUAAAACUGAGCGGAUAACCUCUCUAUGG
RNA 2: GGGAAUGGAUCCACAUCUACGAAUUCGUACUAUAGAGAGGUUAUCCCCUCACCGAGAUCGGAAGAGCACACGU
B2: target 1 insC 3' of 20,insU 3' of 1 (mixed)
RNA 1: B1 RNA 1
RNA 2: GGGAAUGGAUCCACAUCUACGAAUUCGUACCACUAGAGAGGUUAUCCGCUCAUCCGAGAUCGGAAGAGCACACGU
B3: target 1 A9G,C22A (mixed)
RNA 1: B1 RNA 1
RNA 2: B1 RNA 2 with C30A, U31C, A43G, C47G
B4: target 1 A9G,G15U (mixed)
RNA 1: B1 RNA 1
RNA 2: B1 RNA 2 with U31C, G37U, A43G, C47G
B5: target 2 MT 5'PFS ACA 3'PFS AGG (mixed)
RNA 1: CACCCGUGCAAAAUUGCAGGGGUCUAAAACCUUCUCCAAAUUGUUUCAUCCU
RNA 2: GGGAAUGGAUCCACAUCUACGAAUUCACAAGGAUGAAACAAUUUGGAGAAGAGGAGAUCGGAAGAGCACACGU
B6: target 2 MT 5'PFS CAU 3'PFS UUG (mixed)
RNA 1: B5 RNA 1
RNA 2: B5 RNA 2 with A27C, C28A, A29U, A52U, G53U
B7: target 2 MT 5'PFS AGA 3'PFS UCA (mixed)
RNA 1: B5 RNA 1
RNA 2: B5 RNA 2 with C28G, A52U, G53C, G54A
B8: target 2 MT 5'PFS AGA 3'PFS UCG (mixed)
RNA 1: B5 RNA 1
RNA 2: B5 RNA 2 with C28G, A52U, G53C
B9: target 2 MT 5'PFS ACA 3'PFS UCA (mixed)
RNA 1: B5 RNA 1
RNA 2: B5 RNA 2 with A52U, G53C, G54A
B10: target 2 MT 5'PFS UGU 3'PFS AUC (mixed)
RNA 1: B5 RNA 1
RNA 2: B5 RNA 2 with A27U, C28G, A29U, G53U, G54C
B11: target 2 MT 5'PFS ACA 3'PFS AGC (mixed)
RNA 1: B5 RNA 1
RNA 2: B5 RNA 2 with G54C
B12: target 2 MT 5'PFS UGU 3'PFS AUA (mixed)
RNA 1: B5 RNA 1
RNA 2: B5 RNA 2 with A27U, C28G, A29U, G53U, G54A
B13: target 2 MT 5'PFS GUC 3'PFS UAA (mixed)
RNA 1: B5 RNA 1
RNA 2: B5 RNA 2 with A27G, C28U, A29C, A52U, G53A, G54A
B14: target 2 MT 5'PFS CAU 3'PFS UUA (mixed)
RNA 1: B5 RNA 1
RNA 2: B5 RNA 2 with A27C, C28A, A29U, A52U, G53U, G54A
B15: target 2 MT 5'PFS CAU 3'PFS UUC (mixed)
RNA 1: B5 RNA 1
RNA 2: B5 RNA 2 with A27C, C28A, A29U, A52U, G53U, G54C
B16: target 2 MT 5'PFS UGG 3'PFS AAC (mixed)
RNA 1: B5 RNA 1
RNA 2: B5 RNA 2 with A27U, C28G, A29G, G53A, G54C
B17: target 2 MT 5'PFS UAU 3'PFS GAU (mixed)
RNA 1: B5 RNA 1
RNA 2: B5 RNA 2 with A27U, C28A, A29U, A52G, G53A, G54U
B18: target 2 MT 5'PFS ACC 3'PFS CAC (mixed)
RNA 1: B5 RNA 1
RNA 2: B5 RNA 2 with A29C, A52C, G53A, G54C
B19: target 2 MT 5'PFS UCA 3'PFS CAU (mixed)
RNA 1: B5 RNA 1
RNA 2: B5 RNA 2 with A27U, A52C, G53A, G54U
B20: target 2 MT 5'PFS UGG 3'PFS AGC (mixed)
RNA 1: B5 RNA 1
RNA 2: B5 RNA 2 with A27U, C28G, A29G, G54C
B21: target 2 MT 5'PFS ACA 3'PFS AGA (mixed)
RNA 1: B5 RNA 1
RNA 2: B5 RNA 2 with G54A
B22: target 2 MT 5'PFS GAA 3'PFS CUA (mixed)
RNA 1: B5 RNA 1
RNA 2: B5 RNA 2 with A27G, C28A, A52C, G53U, G54A
B23: target 2 MT 5'PFS GCU 3'PFS UAU (mixed)
RNA 1: B5 RNA 1
RNA 2: B5 RNA 2 with A27G, A29U, A52U, G53A, G54U
B24: target 2 MT 5'PFS GUC 3'PFS UAU (mixed)
RNA 1: B5 RNA 1
RNA 2: B5 RNA 2 with A27G, C28U, A29C, A52U, G53A, G54U
B25: target 2 MT 5'PFS CAU 3'PFS UUU (mixed)
RNA 1: B5 RNA 1
RNA 2: B5 RNA 2 with A27C, C28A, A29U, A52U, G53U, G54U
B26: target 2 MT 5'PFS GAA 3'PFS CUG (mixed)
RNA 1: B5 RNA 1
RNA 2: B5 RNA 2 with A27G, C28A, A52C, G53U
B27: target 2 MT 5'PFS UGG 3'PFS CAC (mixed)
RNA 1: B5 RNA 1
RNA 2: B5 RNA 2 with A27U, C28G, A29G, A52C, G53A, G54C
B28: target 2 MT 5'PFS GUC 3'PFS UAG (mixed)
RNA 1: B5 RNA 1
RNA 2: B5 RNA 2 with A27G, C28U, A29C, A52U, G53A
B29: target 2 MT 5'PFS GAA 3'PFS CUC (mixed)
RNA 1: B5 RNA 1
RNA 2: B5 RNA 2 with A27G, C28A, A52C, G53U, G54C
B30: target 2 MT 5'PFS UGG 3'PFS AGU (mixed)
RNA 1: B5 RNA 1
RNA 2: B5 RNA 2 with A27U, C28G, A29G, G54U
B31: target 2 MT 5'PFS GUC 3'PFS UAC (mixed)
RNA 1: B5 RNA 1
RNA 2: B5 RNA 2 with A27G, C28U, A29C, A52U, G53A, G54C
B32: target 2 MT 5'PFS AGA 3'PFS UCC (mixed)
RNA 1: B5 RNA 1
RNA 2: B5 RNA 2 with C28G, A52U, G53C, G54C
B33: target 2 MT 5'PFS UAU 3'PFS GAG (mixed)
RNA 1: B5 RNA 1
RNA 2: B5 RNA 2 with A27U, C28A, A29U, A52G, G53A

Molecular target: T1, EsCas13d, nuclease-dead
Experiment: crRNA (strand 1, pre-loaded); Mg2+; 40 mM Tris-HCl pH 7.5, 150 mM NaCl, 6 mM MgCl2, 1 mM DTT, 0.1% Tween-20, 0.2 mg/ml BSA; 25 C; 10 min per concentration, then washed
Conditions: tags: His6-TwinStrep-SUMO cleaved; N-terminal SNAP kept (SNAP-Surface 488); label: 3' end held by stalled T7 RNA polymerase

Binder | Kd [nM]
B1 | 7.1 ± 0.4
B2 | 7.34 ± 0.35
B3 | 21.9 ± 1.3
B4 | 17.3 ± 1.4
B5 | 4.9 ± 0.6
B6 | 4.5 ± 0.4
B7 | 8.2 ± 1.8
B8 | 14 ± 4
B9 | 8.7 ± 3.2
B10 | 16.6 ± 2.6
B11 | 4.7 ± 1.1
B12 | 9.9 ± 1.6
B13 | 9.3 ± 1.4
B14 | 5.2 ± 0.9
B15 | 9.1 ± 1.6
B16 | 7.1 ± 0.6
B17 | ~44

Binder | Kd [nM]
B18 | 7.4 ± 1.6
B19 | 4.8 ± 1.1
B20 | 6 ± 0.9
B21 | 3.6 ± 1.3
B22 | 6.9 ± 1.1
B23 | 11 ± 4
B24 | 18 ± 5
B25 | 6.2 ± 0.7
B26 | 11.2 ± 1.4
B27 | 15.3 ± 2.5
B28 | 14 ± 2
B29 | 16 ± 4
B30 | 8 ± 0.8
B31 | 15.3 ± 2.4
B32 | 43 ± 15
B33 | ~50
